Laboratory results from US20060205646A1.

Target: MMPs in infected porcine wound fluid
Experiment: cell-based or functional assay

- inhibition of MMP activity (Fluorogenic Peptide Substrate I), 0.4 mg/mL γ-D-crystallin: 50%
Substance: γ-D-crystallin (from UniProt P07320 2-174)
